Results as given in patent publication US20210253716A1.

B1: mAb29266 (antibody, human IgG4 S228P, kappa, V domains shown)
VH: QVQLVESGGGVVQPGRSLRLSCEVSGFTFSNYGMHWVRQAPGKGLEWVAVVSYDGSNKYYTDSVKGRFTISRDNSKNTLSLQMNSLRAEDTAVYYCAKDRGITGTSGGVFDIWGQGTMVTVSS
VL: AIRMTQSPSSFSATTGDRVTITCRASQGISSHLAWYQQKPGKAPKFLIYVASTLQSGVPSRFSGSGSGTDFTLTISSLQSEDFATYYCQQYYSYPPTFGQGTKVEIKR
B2: mAb29261 (antibody, human IgG4 S228P, kappa, V domains shown)
VH: EVQLVESGGNLVQPGGSLRLSCAASGFTFSNYAMSWVRQAPGKGLEWVSGITGNGINTYYSVSVKGRFTISRDNSKNTVFLQMNSLRAEDTAIYYCVKERGHSWFGDWFDPWGQGTLVTVSS
VL: DIQMTQSPSSLSASVGDRVTITCRASQGIRNDLGWYQQKPGKAPKRLIYAASSLQSGVPSRFSGSGSGTEFTLTISSLQPEDFATYYCLQHNSYPWTFGQGTKVEIKR

Legend:
[1] = target: mouse ACVR1 extracellular domain expressed with a C-terminal myc-myc-hexahistidine tag (mouse); assay: SPR (Biacore), mAb captured, 25 C
[2] = target: mouse ACVR1 extracellular domain expressed with a C-terminal myc-myc-hexahistidine tag (mouse); assay: SPR (Biacore), mAb captured, 37 C
[3] = target: human ACVR1 extracellular domain expressed with a C-terminal mouse IgG2a Fc tag (human); assay: SPR (Biacore), mAb captured, 25 C
[4] = target: human ACVR1 extracellular domain expressed with a C-terminal mouse IgG2a Fc tag (human); assay: SPR (Biacore), mAb captured, 37 C

mouse ACVR1 extracellular domain expressed with a C-terminal myc-myc-hexahistidine tag (mouse), sequence (chain, as listed by the source limits assumed): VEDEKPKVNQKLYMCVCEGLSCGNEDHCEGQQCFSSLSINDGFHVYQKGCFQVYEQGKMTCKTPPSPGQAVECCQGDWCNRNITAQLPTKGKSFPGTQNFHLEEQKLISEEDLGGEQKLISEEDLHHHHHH
human ACVR1 extracellular domain expressed with a C-terminal mouse IgG2a Fc tag (human), sequence (chain, as listed by the source limits assumed): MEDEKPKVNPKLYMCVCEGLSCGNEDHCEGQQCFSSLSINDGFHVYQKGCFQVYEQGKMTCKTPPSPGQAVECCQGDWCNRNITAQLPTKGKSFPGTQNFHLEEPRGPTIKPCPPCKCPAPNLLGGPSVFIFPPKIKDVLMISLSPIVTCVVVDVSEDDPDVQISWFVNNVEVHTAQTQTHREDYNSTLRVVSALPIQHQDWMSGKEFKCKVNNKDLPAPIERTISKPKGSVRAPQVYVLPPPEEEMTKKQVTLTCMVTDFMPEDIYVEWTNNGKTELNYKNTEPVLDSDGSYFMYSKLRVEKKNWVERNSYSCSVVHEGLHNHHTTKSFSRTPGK

Binder	900 nM or 100 nM Ag Bound (RU) [1] [RU]	900 nM or 100 nM Ag Bound (RU) [2] [RU]	100 nM Ag Bound (RU) [3] [RU]	100 nM Ag Bound (RU) [4] [RU]
B1	5	5	–	–
B2	–	–	0	11
